Numbering of substitutions follows the chain as printed. In names and notes the source's numbering stands.
B1: scFv-V-hPEST-D433A (scFv, V domains shown)
VH: QVQLVESGGGLVKPGGSLRLSCAASGFTFSSYAMSWVRQAPGKGLEWVAAISGSGDNTYYADSVKGRFTISRDNSENTVHLQMAGLRAEDTALYFCAKDGPEVGNPGGYFDFWGRGTLVTVSS
B2: scFv-N-hPEST-D433A (scFv, V domains shown)
VH: B1 VH with E102A
B3: scFv-N-hPEST-S445A (scFv, V domains shown)
VH: B1 VH with E102A
B4: VHH-4C-N77D (VHH)
VHH: VQLVESGGGGLVQPGGSLRLSCVTPGGIFSDYAMGWYRQAPGKQRELVADITVSDTTRYSDPVKGRFTISRDNAKDMVYLQMNSLKPEDAAIYTCNAQKWEDRYGSSERYDYWGQGTQVTVSS
notes: Unfused nanobody as named in the SPR statement; also called VHH-N77D

Experiments:
GFP-Tau-(0N4R) = GFP-Tau-(0N4R) (human, UniProt P10636-6 1-383); test: cell-based or functional assay
[1] = target: human α-synuclein protein (human, UniProt P37840 1-140); test: surface plasmon resonance (SPR); no numbers given

Chain of GFP-Tau-(0N4R) (P10636 other isoform, or with tags, fused parts or gaps): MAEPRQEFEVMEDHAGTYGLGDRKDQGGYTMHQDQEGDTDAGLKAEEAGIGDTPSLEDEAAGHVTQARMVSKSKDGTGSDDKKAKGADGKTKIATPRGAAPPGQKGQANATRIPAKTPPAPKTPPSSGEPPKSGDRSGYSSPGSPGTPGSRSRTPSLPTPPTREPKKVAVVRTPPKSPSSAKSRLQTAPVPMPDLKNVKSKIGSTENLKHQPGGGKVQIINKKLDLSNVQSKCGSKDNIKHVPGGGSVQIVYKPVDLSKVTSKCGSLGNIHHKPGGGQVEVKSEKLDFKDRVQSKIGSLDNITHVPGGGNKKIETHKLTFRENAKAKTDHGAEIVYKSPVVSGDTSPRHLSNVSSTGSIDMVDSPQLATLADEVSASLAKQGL

Binder | reduction of total tau vs EV-CON (western blot) (GFP-Tau-(0N4R)) | binding result [1]
B1 | ~40% | –
B2 | ~40% | –
B3 | ~40% | –
B4 | – | binds

— patent US20240009285A1 (REGENERATIVE RESEARCH FOUNDATION, published 2024)
